From patent US20150344570A1 (published 2015)

B1: GpH7-A5/GpH7-B3 variant S298_11K/GpL16-k0 (antibody, human IgG1, kappa)
heavy 1: not shown
heavy 2: not shown
light: DIVMTQSPLSLPVTPGEPASISCQASESLVHSNRNTYLHWYLQKPGQSPQLLIYKVSNRFSGVPDRFSGSGSGTDFTLKISRVEAEDVGVYYCSQNTHVPPTFGQGTKVEIERTVAAPSVFIFPPSDEQLKSGTASVVCLLNNFYPREAKVQWKVDNALQSGNSQESVTEQDSKDSTYSLSSTLTLSKADYEKHKVYACEVTHQGLSSPVTKSFNRGEC
notes: also called He Ab S298_11K
B2: GpH7-A5/GpH7-B3 variant P271_12R/GpL16-k0 (antibody, human IgG1, kappa)
heavy 1: not shown
heavy 2: not shown
light: B1 light
notes: also called He Ab P271_12R
B3: GpH7-A5/GpH7-B3 variant P271_06M/GpL16-k0 (antibody, human IgG1, kappa)
heavy 1: not shown
heavy 2: not shown
light: B1 light
notes: also called He Ab P271_06M
B4: GpH7-A5/GpH7-B3 variant Q295_02A/GpL16-k0 (antibody, human IgG1, kappa)
heavy 1: not shown
heavy 2: not shown
light: B1 light
notes: also called He Ab Q295_02A
B5: GpH7-A5/GpH7-B3 variant P271_20W/GpL16-k0 (antibody, human IgG1, kappa)
heavy 1: not shown
heavy 2: not shown
light: B1 light
notes: also called He Ab P271_20W
B6: GpH7-A5/GpH7-B3 variant Q295_03V/GpL16-k0 (antibody, human IgG1, kappa)
heavy 1: not shown
heavy 2: not shown
light: B1 light
notes: also called He Ab Q295_03V
B7: GpH7-A5/GpH7-B3 variant P271_11K/GpL16-k0 (antibody, human IgG1, kappa)
heavy 1: not shown
heavy 2: not shown
light: B1 light
notes: also called He Ab P271_11K
B8: GpH7-A5/GpH7-B3 variant P271_07I/GpL16-k0 (antibody, human IgG1, kappa)
heavy 1: not shown
heavy 2: not shown
light: B1 light
notes: also called He Ab P271_07I
B9: GpH7-A5/GpH7-B3 variant Q295_04F/GpL16-k0 (antibody, human IgG1, kappa)
heavy 1: not shown
heavy 2: not shown
light: B1 light
notes: also called He Ab Q295_04F
B10: GpH7-A5/GpH7-B3 variant P271_04F/GpL16-k0 (antibody, human IgG1, kappa)
heavy 1: not shown
heavy 2: not shown
light: B1 light
notes: also called He Ab P271_04F
B11: GpH7-A5/GpH7-B3 variant P271_13S/GpL16-k0 (antibody, human IgG1, kappa)
heavy 1: not shown
heavy 2: not shown
light: B1 light
notes: also called He Ab P271_13S
B12: GpH7-B3 variant S298_08L/GpL16-k0 (antibody, human IgG1, kappa)
heavy: not shown
light: B1 light
notes: also called Ho Ab S298_08L
B13: GpH7-B3 variant S324_08L/GpL16-k0 (antibody, human IgG1, kappa)
heavy: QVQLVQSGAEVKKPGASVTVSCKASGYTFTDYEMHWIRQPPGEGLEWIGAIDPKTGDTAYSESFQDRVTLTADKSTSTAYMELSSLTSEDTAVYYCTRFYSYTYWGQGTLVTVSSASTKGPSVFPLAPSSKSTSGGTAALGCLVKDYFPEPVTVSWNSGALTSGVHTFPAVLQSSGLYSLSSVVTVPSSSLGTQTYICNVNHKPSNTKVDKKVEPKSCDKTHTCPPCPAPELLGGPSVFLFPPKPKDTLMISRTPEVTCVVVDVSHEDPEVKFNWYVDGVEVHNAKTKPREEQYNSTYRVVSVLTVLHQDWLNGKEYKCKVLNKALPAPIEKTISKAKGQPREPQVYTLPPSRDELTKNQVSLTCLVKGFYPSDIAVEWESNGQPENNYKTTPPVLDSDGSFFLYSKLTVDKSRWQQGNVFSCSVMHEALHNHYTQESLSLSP
light: B1 light
notes: also called Ho Ab S324_08L
B14: GpH7-B3 variant S324_02A/GpL16-k0 (antibody, human IgG1, kappa)
heavy: not shown
light: B1 light
notes: also called Ho Ab S324_02A
B15: GpH7-B3 variant S298_15Y/GpL16-k0 (antibody, human IgG1, kappa)
heavy: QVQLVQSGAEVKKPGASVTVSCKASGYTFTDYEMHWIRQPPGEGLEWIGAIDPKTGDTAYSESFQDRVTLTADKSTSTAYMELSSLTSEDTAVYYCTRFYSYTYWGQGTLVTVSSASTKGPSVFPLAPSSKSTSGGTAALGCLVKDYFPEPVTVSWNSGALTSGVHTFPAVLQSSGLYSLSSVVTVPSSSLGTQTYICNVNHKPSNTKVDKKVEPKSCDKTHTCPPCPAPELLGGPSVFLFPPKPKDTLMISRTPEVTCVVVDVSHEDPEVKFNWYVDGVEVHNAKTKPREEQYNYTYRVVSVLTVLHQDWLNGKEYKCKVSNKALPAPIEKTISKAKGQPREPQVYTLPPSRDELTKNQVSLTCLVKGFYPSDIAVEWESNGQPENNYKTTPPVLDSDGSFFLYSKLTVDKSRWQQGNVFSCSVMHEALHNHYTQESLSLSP
light: B1 light
notes: also called Ho Ab S298_15Y
B16: GpH7-B3 variant T335_15Y/GpL16-k0 (antibody, human IgG1, kappa)
heavy: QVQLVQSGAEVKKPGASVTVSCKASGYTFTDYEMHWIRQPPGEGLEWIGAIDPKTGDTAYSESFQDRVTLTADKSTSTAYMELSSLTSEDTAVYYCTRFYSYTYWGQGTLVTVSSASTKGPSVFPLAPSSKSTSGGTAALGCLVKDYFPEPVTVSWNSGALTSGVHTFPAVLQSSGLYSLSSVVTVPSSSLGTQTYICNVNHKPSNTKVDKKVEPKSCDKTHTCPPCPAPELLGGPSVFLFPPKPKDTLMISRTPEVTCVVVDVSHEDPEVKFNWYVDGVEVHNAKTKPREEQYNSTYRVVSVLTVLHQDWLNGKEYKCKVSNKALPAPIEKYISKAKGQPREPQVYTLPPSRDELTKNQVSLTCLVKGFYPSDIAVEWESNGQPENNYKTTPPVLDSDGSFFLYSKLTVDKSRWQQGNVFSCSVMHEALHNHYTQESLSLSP
light: B1 light
notes: also called Ho Ab T335_15Y
B17: GpH7-B3 variant S337_02A/GpL16-k0 (antibody, human IgG1, kappa)
heavy: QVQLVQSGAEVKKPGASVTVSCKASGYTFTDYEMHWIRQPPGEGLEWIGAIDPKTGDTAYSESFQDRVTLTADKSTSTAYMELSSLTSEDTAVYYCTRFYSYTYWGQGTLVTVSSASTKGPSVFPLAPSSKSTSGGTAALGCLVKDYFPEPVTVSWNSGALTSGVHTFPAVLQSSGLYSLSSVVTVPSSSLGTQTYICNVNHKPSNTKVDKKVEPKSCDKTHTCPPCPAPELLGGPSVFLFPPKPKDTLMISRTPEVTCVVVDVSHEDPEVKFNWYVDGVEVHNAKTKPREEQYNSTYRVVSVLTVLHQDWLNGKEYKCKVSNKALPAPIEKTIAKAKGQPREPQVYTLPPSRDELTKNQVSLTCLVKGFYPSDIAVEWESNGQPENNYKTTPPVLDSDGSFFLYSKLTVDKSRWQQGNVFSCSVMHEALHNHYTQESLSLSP
light: B1 light
notes: also called Ho Ab S337_02A
B18: GpH7-B3 variant S337_04F/GpL16-k0 (antibody, human IgG1, kappa)
heavy: not shown
light: B1 light
notes: also called Ho Ab S337_04F
B19: GpH7-B3 variant S337_15Y/GpL16-k0 (antibody, human IgG1, kappa)
heavy: not shown
light: B1 light
notes: also called Ho Ab S337_15Y
B20: GpH7-B3 variant S337_06M/GpL16-k0 (antibody, human IgG1, kappa)
heavy: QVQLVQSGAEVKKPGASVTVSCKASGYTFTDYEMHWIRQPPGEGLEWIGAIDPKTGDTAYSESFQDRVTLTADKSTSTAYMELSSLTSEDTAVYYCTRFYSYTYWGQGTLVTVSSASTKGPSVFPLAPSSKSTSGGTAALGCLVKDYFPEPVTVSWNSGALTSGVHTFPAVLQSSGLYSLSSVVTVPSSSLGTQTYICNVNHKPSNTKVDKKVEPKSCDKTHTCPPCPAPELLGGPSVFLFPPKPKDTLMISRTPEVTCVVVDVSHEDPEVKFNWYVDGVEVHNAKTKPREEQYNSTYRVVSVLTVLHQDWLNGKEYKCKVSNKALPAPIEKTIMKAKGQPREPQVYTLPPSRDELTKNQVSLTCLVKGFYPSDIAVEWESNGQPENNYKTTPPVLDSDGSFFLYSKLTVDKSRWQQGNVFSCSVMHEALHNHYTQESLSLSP
light: B1 light
notes: also called Ho Ab S337_06M
B21: GpH7-B3 variant T335_08L/GpL16-k0 (antibody, human IgG1, kappa)
heavy: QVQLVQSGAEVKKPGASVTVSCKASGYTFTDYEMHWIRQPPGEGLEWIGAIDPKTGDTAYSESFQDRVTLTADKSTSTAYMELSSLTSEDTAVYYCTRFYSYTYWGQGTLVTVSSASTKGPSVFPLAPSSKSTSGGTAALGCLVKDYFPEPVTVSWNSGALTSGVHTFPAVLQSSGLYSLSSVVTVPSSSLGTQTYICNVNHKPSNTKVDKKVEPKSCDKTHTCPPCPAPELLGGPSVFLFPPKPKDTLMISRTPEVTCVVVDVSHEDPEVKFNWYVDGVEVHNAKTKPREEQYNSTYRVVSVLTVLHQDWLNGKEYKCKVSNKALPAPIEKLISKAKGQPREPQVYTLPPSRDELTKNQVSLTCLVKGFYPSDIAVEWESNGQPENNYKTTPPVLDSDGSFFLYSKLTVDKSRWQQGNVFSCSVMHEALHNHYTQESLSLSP
light: B1 light
notes: also called Ho Ab T335_08L
B22: GpH7-B3 variant S324_03V/GpL16-k0 (antibody, human IgG1, kappa)
heavy: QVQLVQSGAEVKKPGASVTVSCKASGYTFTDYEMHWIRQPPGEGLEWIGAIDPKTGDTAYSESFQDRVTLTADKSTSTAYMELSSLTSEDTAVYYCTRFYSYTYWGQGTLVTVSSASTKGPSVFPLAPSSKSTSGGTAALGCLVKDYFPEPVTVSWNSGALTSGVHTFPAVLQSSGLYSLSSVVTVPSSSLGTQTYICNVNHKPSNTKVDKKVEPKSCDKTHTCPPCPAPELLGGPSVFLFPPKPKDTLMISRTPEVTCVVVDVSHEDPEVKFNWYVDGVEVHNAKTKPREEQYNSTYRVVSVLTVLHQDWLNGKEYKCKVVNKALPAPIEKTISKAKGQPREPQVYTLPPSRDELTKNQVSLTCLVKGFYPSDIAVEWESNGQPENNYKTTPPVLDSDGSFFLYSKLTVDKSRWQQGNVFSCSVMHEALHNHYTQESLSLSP
light: B1 light
notes: also called Ho Ab S324_03V
B23: GpH7-B3 variant Y300_12R/GpL16-k0 (antibody, human IgG1, kappa)
heavy: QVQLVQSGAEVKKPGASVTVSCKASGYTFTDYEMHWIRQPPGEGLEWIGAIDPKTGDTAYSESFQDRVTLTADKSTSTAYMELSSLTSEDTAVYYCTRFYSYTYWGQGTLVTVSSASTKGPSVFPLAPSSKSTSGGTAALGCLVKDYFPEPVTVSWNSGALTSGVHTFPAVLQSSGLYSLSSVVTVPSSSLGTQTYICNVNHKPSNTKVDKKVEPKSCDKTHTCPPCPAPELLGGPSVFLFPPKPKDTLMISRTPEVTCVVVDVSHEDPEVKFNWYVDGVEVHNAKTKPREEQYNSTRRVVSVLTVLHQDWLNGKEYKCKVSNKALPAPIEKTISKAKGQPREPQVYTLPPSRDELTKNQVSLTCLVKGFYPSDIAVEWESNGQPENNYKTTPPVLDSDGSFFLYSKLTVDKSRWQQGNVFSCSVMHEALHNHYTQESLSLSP
light: B1 light
notes: also called Ho Ab Y300_12R
B24: GpH7-B3 variant T335_04F/GpL16-k0 (antibody, human IgG1, kappa)
heavy: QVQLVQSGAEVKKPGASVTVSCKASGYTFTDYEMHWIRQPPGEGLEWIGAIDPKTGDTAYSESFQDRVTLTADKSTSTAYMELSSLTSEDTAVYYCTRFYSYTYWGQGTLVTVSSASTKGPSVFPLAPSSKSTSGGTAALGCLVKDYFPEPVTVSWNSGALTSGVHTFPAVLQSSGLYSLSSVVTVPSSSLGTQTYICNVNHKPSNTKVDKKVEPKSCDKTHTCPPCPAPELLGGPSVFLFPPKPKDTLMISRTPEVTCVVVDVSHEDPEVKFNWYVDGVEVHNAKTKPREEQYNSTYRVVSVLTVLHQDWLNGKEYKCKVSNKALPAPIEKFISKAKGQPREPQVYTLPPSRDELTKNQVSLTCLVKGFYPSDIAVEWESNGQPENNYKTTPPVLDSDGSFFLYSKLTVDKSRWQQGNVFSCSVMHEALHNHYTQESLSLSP
light: B1 light
notes: also called Ho Ab T335_04F
B25: GpH7-B3 variant T335_10E/GpL16-k0 (antibody, human IgG1, kappa)
heavy: not shown
light: B1 light
notes: also called Ho Ab T335_10E
B26: GpH7-B3 variant T335_11K/GpL16-k0 (antibody, human IgG1, kappa)
heavy: not shown
light: B1 light
notes: also called Ho Ab T335_11K
B27: GpH7-B3 variant T335_12R/GpL16-k0 (antibody, human IgG1, kappa)
heavy: not shown
light: B1 light
notes: also called Ho Ab T335_12R
B28: GpH7-B3 variant S298_10E/GpL16-k0 (antibody, human IgG1, kappa)
heavy: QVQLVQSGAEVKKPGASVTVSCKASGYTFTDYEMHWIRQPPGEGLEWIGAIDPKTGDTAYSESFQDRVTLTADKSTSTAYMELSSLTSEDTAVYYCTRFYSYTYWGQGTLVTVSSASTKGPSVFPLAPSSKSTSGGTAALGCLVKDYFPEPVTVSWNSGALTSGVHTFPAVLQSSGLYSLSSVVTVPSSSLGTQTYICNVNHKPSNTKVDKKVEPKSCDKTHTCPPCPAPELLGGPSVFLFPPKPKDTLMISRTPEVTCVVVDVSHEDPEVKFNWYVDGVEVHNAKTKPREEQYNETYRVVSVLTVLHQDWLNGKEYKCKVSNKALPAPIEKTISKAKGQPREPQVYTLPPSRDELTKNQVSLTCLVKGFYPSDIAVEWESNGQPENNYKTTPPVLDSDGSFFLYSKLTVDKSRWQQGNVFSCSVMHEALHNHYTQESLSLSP
light: B1 light
notes: also called Ho Ab S298_10E

Molecular target: T1, FcγRIa (human, UniProt P12314 16-292)
T1 construct: extracellular domain; Soluble extracellular domain expressed in FreeStyle293 cells, used as analyte in Biacore; also called FcgRI; 1a; not shown: His tag attached to the C terminus
Test: SPR (Biacore); He Ab vs HeCon Ab GpH7-A5/GpH7-B3/GpL16-k0
Method: (§1) Analysis of interaction between objective antibody and the FcγR was carried out using Biacore T100 (GE Healthcare). HBS-EP+ (GE Healthcare) was used as the running buffer, and the measurement temperature was set to 25° C. Chips produced by immobilizing the antigen peptide by the amine coupling method to a Series S Sencor Chip CM5 (GE Healthcare), or alternatively, chips produced by allowing preliminarily biotinylated antigen peptides to interact with and immobilize onto a Series S Sensor Chip SA (certified) (GE Healthcare) were used. Antibodies of interest were captured onto an antigen peptide-immobilized chip, and allowed to interact to each FcγR diluted with running buffer. To regenerate and repeatedly use the chip, the antibodies captured on the chip were washed off by reacting 10 mM glycine-HCl, pH 1.5.

T1 sequence (P12314 16-292): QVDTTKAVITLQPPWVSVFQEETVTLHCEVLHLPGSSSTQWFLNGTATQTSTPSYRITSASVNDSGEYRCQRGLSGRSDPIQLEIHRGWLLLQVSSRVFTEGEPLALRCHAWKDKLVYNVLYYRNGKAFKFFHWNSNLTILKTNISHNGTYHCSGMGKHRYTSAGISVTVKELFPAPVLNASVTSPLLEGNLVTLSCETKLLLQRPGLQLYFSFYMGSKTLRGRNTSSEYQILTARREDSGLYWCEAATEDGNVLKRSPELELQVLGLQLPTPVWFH

He/Con_1a	Binder
109 relative binding, control = 100	B1
102 relative binding, control = 100	B2
102 relative binding, control = 100	B3
104 relative binding, control = 100	B4
103 relative binding, control = 100	B5
104 relative binding, control = 100	B6
103 relative binding, control = 100	B7
102 relative binding, control = 100	B8
102 relative binding, control = 100	B9
102 relative binding, control = 100	B10
102 relative binding, control = 100	B11

Molecular target: T1, FcγRIa
Test: SPR (Biacore); Ho Ab vs HoCon Ab GpH7-B3/GpL16-k0
Method: as §1

Ho/Con_1a	Binder
104 relative binding, control = 100	B12
103 relative binding, control = 100	B13
103 relative binding, control = 100	B14
103 relative binding, control = 100	B15
106 relative binding, control = 100	B16
103 relative binding, control = 100	B17
105 relative binding, control = 100	B18
104 relative binding, control = 100	B19
102 relative binding, control = 100	B20
105 relative binding, control = 100	B21
103 relative binding, control = 100	B22
96.5 relative binding, control = 100	B23
105 relative binding, control = 100	B24
108 relative binding, control = 100	B25
103 relative binding, control = 100	B26
106 relative binding, control = 100	B27
106 relative binding, control = 100	B28
